Data reported in paper PMC6082870, “Molecular architecture of the multifunctional collagen lysyl hydroxylase and glycosyltransferase LH3” (Nature Communications, 2018).
Numbering of substitutions follows the chain as printed. Names may count otherwise.

Experiments:
[1] = biological target: the molecule itself; assay: not stated; oligomeric assembly of LH3 N223S, Supplementary Fig. 11B; method not given
[2] = biological target: the molecule itself; assay: SEC; analytical size exclusion, Superdex 200 5/150 GL, 25 mM HEPES/NaOH, 200 mM NaCl, pH 8.0
[3] = biological target: the molecule itself; assay: SEC-SAXS; 50 uL LH3 at 4 mg/mL on Superdex 200 PC 3.2/300 Increase, 25 mM HEPES/NaOH, 200 mM NaCl, pH 8.0, online SAXS at ESRF BM29

B1: LH3 N223S pathogenic variant (enzyme, human, UniProt O60568 25-738, looked up)
chain: SDRPRGRDPVNPEKLLVITVATAETEGYLRFLRSAEFFNYTVRTLGLGEEWRGGDVARTVGGGQKVRWLKKEMEKYADREDMIIMFVDSYDVILAGSPTELLKKFVQSGSRLLFSAESFCWPEWGLAEQYPEVGTGKRFLNSGGFIGFATTIHQIVRQWKYKDDDDDQLFYTRLYLDPGLREKLSLNLDHKSRIFQNLSGALDEVVLKFDRNRVRIRNVAYDTLPIVVHGNGPTKLQLNYLGNYVPNGWTPEGGCGFCNQDRRTLPGGQPPPRVFLAVFVEQPTPFLPRFLQRLLLLDYPPDRVTLFLHNNEVFHEPHIADSWPQLQDHFSAVKLVGPEEALSPGEARDMAMDLCRQDPECEFYFSLDADAVLTNLQTLRILIEENRKVIAPMLSRHGKLWSNFWGALSPDEYYARSEDYVELVQRKRVGVWNVPYISQAYVIRGDTLRMELPQRDVFSGSDTDPDMAFCKSFRDKGIFLHLSNQHEFGRLLATSRYDTEHLHPDLWQIFDNPVDWKEQYIHENYSRALEGEGIVEQPCPDVYWFPLLSEQMCDELVAEMEHYGQWSGGRHEDSRLAGGYENVPTVDIHMKQVGYEDQWLQLLRTYVGPMTESLFPGYHTKARAVMNFVVRYRPDEQPSLRPHHDSSTFTLNVALNHKGLDYEGGGCRFLRYDCVISSPRKGWALLHPGRLTHYHEGLPTTWGTRYIMVSFVDP
notes: human LH3 (PLOD3), GenBank BC011674.2, devoid of the N-terminal signal peptide, with the pathogenic mutation N223S; The mutation was reported to add an N-linked glycosylation on Asn221; not shown: 6xHis, N-terminal, cleaved
[1]
  stoichiometry N: 2

B2: LH3 L715D mutant (enzyme, human, UniProt O60568 25-738, looked up)
chain: B1 chain with S199N, L691D
notes: human LH3 (PLOD3), GenBank BC011674.2, devoid of the N-terminal signal peptide, with L715D; not shown: 6xHis, N-terminal, cleaved
[2]
  binding result: binds

B3: LH3 W148N-L150T glycosylated control mutant (enzyme, human, UniProt O60568 25-738, looked up)
chain: B1 chain with W124N, L126T, S199N
modifications: additional glycosylation at the compact N-terminal (crystal contact) interface, introduced by W148N-L150T
notes: human LH3 (PLOD3), GenBank BC011674.2, devoid of the N-terminal signal peptide, with W148N and L150T; not shown: 6xHis, N-terminal, cleaved
[2]
  stoichiometry N: 2

B4: human lysyl hydroxylase 3 (LH3/PLOD3), wild type (enzyme, UniProt O60568 25-738, looked up)
chain: B1 chain with S199N
modifications: N-linked glycosylations at Asn63 and Asn548
notes: a vector signal peptide, 6xHis tag and TEV site precede the BamHI site, so a few vector residues may remain after TEV cleavage; also called wild-type LH3; full-length human LH3; not shown: 6xHis, N-terminal, cleaved
[3]
  stoichiometry N: 2
